The source of these data is PMC11187106, “Master corepressor inactivation through multivalent SLiM-induced polymerization mediated by the oncogene suppressor RAI2” (Nature Communications, 2024).

Numbering of substitutions follows the chain as printed. A value given as a limit tells only on which side of the number the result lay.

The term Kd denotes a measure of binding affinity in units of concentration. A lower Kd goes with a tighter complex. By stoichiometry N is commonly meant the number of molecules, sites or subunits per partner or assembly.

Holding throughout (conditions): both partners purified
Assay [1] concerns the target CtBP1(WT, FL) (human, UniProt Q13363 1-440). Put plainly: ITC; VP-ITC, 25 °C, 50 mM HEPES (pH 7.2), 150 mM NaCl; CtBP in the cell (10 µM for RAI2 M1 or M2, 20 µM for the WT RAI2 constructs), RAI2 in the syringe (100 µM); mean of three independent measurements ± SD. For orientation: In ITC the heat of successive injections is recorded.
The target in assay [2] is CtBP1(K46W) (human, UniProt Q13363 1-440, K46W). The assay is described as above.
Assay [3] concerns the target CtBP1(WT, FL) (human, UniProt Q13363 1-440). Put plainly: ITC; VP-ITC, 25 °C, 50 mM HEPES (pH 7.2), 150 mM NaCl; CtBP1 in the cell (20 µM for WT RAI2, 10 µM for M1 or M2), RAI2(303-362) variants 100 µM in the syringe; mean of three independent measurements.
The target in assay [4] is CtBP1(K46W) (human, UniProt Q13363 1-440, K46W). Put plainly: ITC; VP-ITC, 25 °C, 50 mM HEPES (pH 7.2), 150 mM NaCl; CtBP in the cell (10 µM for M1 or M2, 20 µM for WT RAI2 constructs), RAI2 constructs in the syringe (100 µM); mean of three measurements.
Assay [5] addresses T1, CtBP1(WT, FL) (human, UniProt Q13363 1-440). The description is as above.
Assay [6] deals with CtBP1(WT, FL) (human, UniProt Q13363 1-440). Put plainly: ITC; VP-ITC, 25 °C, 50 mM HEPES (pH 7.2), 150 mM NaCl; CtBP in the cell (10 µM for RAI2 M1 or M2, 20 µM for the WT RAI2 constructs), RAI2 in the syringe (100 µM); mean of three independent measurements ± SD. The source holds these as a separate data set.
Assay [7] has as its target T1, CtBP1(WT, FL). Put plainly: SEC; analytical Superose 6 3.2/300 GL, 50 mM HEPES (pH 7.2), 150 mM NaCl; CtBP kept at 100 µM, RAI2 variants titrated at 1:0.1, 1:0.2, 1:0.5, 1:1 and 1:2.

B1: RAI2(WT, 303-362) (domain or fragment)
chain: SRHTVIKMGSENEALDLSMKSVPWLKAGEVSPPIFQEDAALDLSVAAHRKSEPPPETLYD
notes: this construct came from the same vector (pETGB1a, TEV site) and may carry the same residues; source: E. coli BL21 DE3 LOBSTR, purified (HisTrap, TEV cleavage, Superdex 75); not shown: His6, N-terminal, cleaved
For B1, in the assay with CtBP1(WT, FL) [1], the affinity, expressed as Kd, was 1.1 µM and the “stoichiometry N” value was determined as 0.42. In addition, in the assay with CtBP1(K46W) [2], binding was put at a Kd of 4.5 µM and the “stoichiometry N” value was 0.26.

B2: RAI2(WT, 303-362) (domain or fragment)
chain: B1 chain
notes: Cloned in pETGB1a with a TEV site; also called Retinoic Acid-Induced 2; source: E. coli BL21 DE3 LOBSTR, purified (HisTrap, TEV cleavage, Superdex 75); not shown: His6, N-terminal, cleaved
With B2, in the assay with CtBP1(WT, FL) [3], the dissociation constant Kd is 1.09 µM and the “stoichiometry N” value was 0.42.

B3: RAI2(WT, 303–362) (domain or fragment, human, UniProt Q9Y5P3 303-362, looked up)
chain: B1 chain
notes: 15N/13C-labelled for NMR; A residue of the TEV site (ENLYFQG) may remain at the N-terminus; PDB 8ARI holds the Δ11 variant of the same limits; source: E. coli BL21 DE3 LOBSTR, purified (HisTrap, TEV cleavage, Superdex 75); not shown: His6, N-terminal, cleaved
As for B3, the “stoichiometry N” value in the assay with CtBP1(K46W) [4] is less than 0.3. Further, in the assay with CtBP1(WT, FL) [5], the “fold change in binding stoichiometry against M1 and M2” value is approximately 2 fold; the “fold increase in binding affinity against M1 and M2” value was found to be 5 fold; the “stoichiometry N” value came out at 0.5.

B4: RAI2(M1, 303–362) (domain or fragment)
chain: B1 chain with L17A, S18A
notes: 15N-labelled for NMR; PDB 8ARI holds the Δ11 variant of the same limits; source: E. coli BL21 DE3 LOBSTR, purified (HisTrap, TEV cleavage, Superdex 75); not shown: His6, N-terminal, cleaved
With B4, the Kd with CtBP1(WT, FL) [5] was approximately 5 µM.

B5: RAI2(M1, 303-362) (domain or fragment)
chain: B1 chain with L17A, S18A
notes: source: E. coli BL21 DE3 LOBSTR, purified (HisTrap, TEV cleavage, Superdex 75); not shown: His6, N-terminal, cleaved
With B5, in the assay with CtBP1(WT, FL) [3], the Kd is 5.53 µM and the “stoichiometry N” value was 0.785.

B6: RAI2(M1, 303-362) (domain or fragment)
chain: B1 chain with L17A, S18A
notes: as for B5
Regarding B6, in the assay with CtBP1(WT, FL) [1], the equilibrium dissociation constant (Kd) came to 5.5 µM and the “stoichiometry N” value was determined as 0.78.

B7: RAI2(M2, 303–362) (domain or fragment)
chain: B1 chain with L43A, S44A
notes: as for B4
With B7, the equilibrium dissociation constant (Kd) in the assay with CtBP1(WT, FL) [5] was approximately 5 µM.

B8: RAI2(M2, 303-362) (domain or fragment)
chain: B1 chain with L43A, S44A
notes: as for B5
On to B8, for which, in the assay with CtBP1(WT, FL) [1], the Kd amounted to 3.9 µM and the “stoichiometry N” value stood at 0.84.

B9: RAI2(M2, 303-362) (domain or fragment)
chain: B1 chain with L43A, S44A
notes: as for B5
In the case of B9, in the assay with CtBP1(WT, FL) [3], the affinity, expressed as Kd, was 3.87 µM and the “stoichiometry N” value came to 0.836.

B10: RAI2(Δ11, 303-362) (domain or fragment, UniProt Q9Y5P3 303-362, looked up)
chain: SRHTVIKMGSENEALDLSMKSVPWLKAGALDLSVAAHRKSEPPPETLYD
notes: as for B5
For the molecule B10, the dissociation constant (Kd) with CtBP1(WT, FL) [1] is 0.8 µM; in the assay with CtBP1(K46W) [2], 7.2 µM. Also, the “stoichiometry N” value in the assay with CtBP1(WT, FL) [1] worked out at 0.41; in the assay with CtBP1(K46W) [2], 0.29.

B11: RAI2(WT, 303-530) (domain or fragment)
chain: SRHTVIKMGSENEALDLSMKSVPWLKAGEVSPPIFQEDAALDLSVAAHRKSEPPPETLYDSGASVDSSGHTVMEKLPSGMEISFAPATSHEAPAMMDSHISSSDAATEMLSQPNHPSGEVKAENNIEMVGESQAAKVIVSVEDAVPTIFCGKIKGLSGVSTKNFSFKREDSVLQGYDINSQGEESMGNAEPLRKPIKNRSIKLKKVNSQEIHMLPIKKQRLATFFPRK
For the molecule B11, in the assay with CtBP1(WT, FL) [6], the affinity, expressed as Kd, was 1.5 µM and the “stoichiometry N” value came out at 0.34.

B12: RAI2(WT, 303–530) (domain or fragment)
chain: B11 chain
notes: as for B5
With B12, the binding result with CtBP1(WT, FL) [5] is “binds”.

B13: RAI2(WT, 303-465) (domain or fragment)
chain: SRHTVIKMGSENEALDLSMKSVPWLKAGEVSPPIFQEDAALDLSVAAHRKSEPPPETLYDSGASVDSSGHTVMEKLPSGMEISFAPATSHEAPAMMDSHISSSDAATEMLSQPNHPSGEVKAENNIEMVGESQAAKVIVSVEDAVPTIFCGKIKGLSGVSTKN
notes: this construct came from the same vector and may carry the same residues; source: E. coli BL21 DE3 LOBSTR, purified (HisTrap, TEV cleavage, Superdex 75); not shown: His6, N-terminal, cleaved
With B13, in the assay with CtBP1(WT, FL) [1], the affinity, expressed as Kd, was 1.5 µM and the “stoichiometry N” value was determined as 0.32.

B14: RAI2(M2, 303–465) (domain or fragment)
chain: B13 chain with L43A, S44A
notes: only residues 315-321 (EALDLSM) are seen in the crystal structure; source: E. coli BL21 DE3 LOBSTR, purified (HisTrap, TEV cleavage, Superdex 75); not shown: His6, N-terminal, cleaved
For the molecule B14, the binding result with CtBP1(WT, FL) [7] is “binds”.

B15: RAI2(M1, 303–465) (domain or fragment)
chain: B13 chain with L17A, S18A
notes: PDB 8ATI holds the M2 variant of the same limits; source: E. coli BL21 DE3 LOBSTR, purified (HisTrap, TEV cleavage, Superdex 75); not shown: His6, N-terminal, cleaved
Turning to B15, in the assay with CtBP1(WT, FL) [7], the binding result was “binds”.
